Experimental data: US20210061911A1 (MacroGenics, published 2021)

What was measured:
Human CD123-His = target: T1, Human CD123-His (human, UniProt P26951 19-305); assay: kinetic binding analysis, method not given
T1 construct: also called interleukin 3 receptor alpha; IL-3Rα; not shown: His tag
T1 sequence (looked up): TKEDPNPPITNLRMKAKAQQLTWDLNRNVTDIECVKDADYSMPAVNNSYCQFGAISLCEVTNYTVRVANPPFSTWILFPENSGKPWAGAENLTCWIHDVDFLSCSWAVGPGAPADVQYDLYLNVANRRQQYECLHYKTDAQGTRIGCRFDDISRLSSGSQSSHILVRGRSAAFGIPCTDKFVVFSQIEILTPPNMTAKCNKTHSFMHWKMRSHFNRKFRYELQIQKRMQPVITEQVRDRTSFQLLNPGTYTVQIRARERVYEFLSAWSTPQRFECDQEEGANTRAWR

Cynomolgus CD123-His = target: T2, Cynomolgus CD123-His (cynomolgus monkey); assay: kinetic binding analysis, method not given
T2 construct: also called cynomolgus monkey CD123

B1: DART-A, sequence-optimized CD123×CD3 bi-specific monovalent diabody (bispecific antibody)
chain 1: QAVVTQEPSLTVSPGGTVTLTCRSSTGAVTTSNYANWVQQKPGQAPRGLIGGTNKRAPWTPARFSGSLLGGKAALTITGAQAEDEADYYCALWYSNLWVFGGGTKLTVLGGGGSGGGGEVQLVQSGAELKKPGASVKVSCKASGYTFTDYYMKWVRQAPGQGLEWIGDIIPSNGATFYNQKFKGRVTITVDKSTSTAYMELSSLRSEDTAVYYCARSHLLRASWFAYWGQGTLVTVSSGGCGGGEVAALEKEVAALEKEVAALEKEVAALEK
chain 2: DFVMTQSPDSLAVSLGERVTMSCKSSQSLLNSGNQKNYLTWYQQKPGQPPKLLIYWASTRESGVPDRFSGSGSGTDFTLTISSLQAEDVAVYYCQNDYSYPYTFGQGTKLEIKGGGSGGGGEVQLVESGGGLVQPGGSLRLSCAASGFTFSTYAMNWVRQAPGKGLEWVGRIRSKYNNYATYYADSVKDRFTISRDDSKNSLYLQMNSLKTEDTAVYYCVRHGNFGNSYVSWFAYWGQGTLVTVSSGGCGGGKVAALKEKVAALKEKVAALKEKVAALKE
notes: no Fc; also called CD123×CD3 DART molecule
- kon (Human CD123-His): 160000 M⁻¹ s⁻¹
- kon (Cynomolgus CD123-His): 150000 M⁻¹ s⁻¹
